Like-named read-outs stand apart in the source and are kept apart here.

These results are taken from patent publication US20190276549A1.

For experiment [1], the target named is C1q (human) (UniProt P02745). Description: cell-based or functional assay.
The target in experiment [2] is C1q (human) (UniProt P02745). Description: cell-based or functional assay. The source holds these as a separate data set.
In experiment [3] the target is CD52 (human) (UniProt P31358). Description: QIFIKIT indirect immunofluorescence, flow cytometry, 10 µg/mL antibody, U-698-M cells. Background: A flow cytometer gives signals particle by particle.
The target of experiment [4] is CD52 (human) (UniProt P31358). Briefly: QIFIKIT indirect immunofluorescence, flow cytometry, 10 µg/mL antibody, Ramos cells.
Experiment [5] deals with CD52 (human) (UniProt P31358). Briefly: QIFIKIT indirect immunofluorescence, flow cytometry, 10 µg/mL antibody, Raji cells.
Experiment [6] deals with CD52 (human) (UniProt P31358). Briefly: QIFIKIT indirect immunofluorescence, flow cytometry, 10 µg/mL antibody, U-266B1 cells.
Experiment [7] concerns the target CD52 (human) (UniProt P31358). Briefly: QIFIKIT indirect immunofluorescence, flow cytometry, 10 µg/mL antibody, Daudi cells.
For experiment [8], the target named is CD52 (human) (UniProt P31358). Description: QIFIKIT indirect immunofluorescence, flow cytometry, 10 µg/mL antibody, REH cells.
Experiment [9] concerns the target CD52 (human) (UniProt P31358). Description: QIFIKIT indirect immunofluorescence, flow cytometry, 10 µg/mL antibody, Wien 133 cells.

UniProt P02745, sequence (P02745 23-245 limits assumed, chain 1 of 3): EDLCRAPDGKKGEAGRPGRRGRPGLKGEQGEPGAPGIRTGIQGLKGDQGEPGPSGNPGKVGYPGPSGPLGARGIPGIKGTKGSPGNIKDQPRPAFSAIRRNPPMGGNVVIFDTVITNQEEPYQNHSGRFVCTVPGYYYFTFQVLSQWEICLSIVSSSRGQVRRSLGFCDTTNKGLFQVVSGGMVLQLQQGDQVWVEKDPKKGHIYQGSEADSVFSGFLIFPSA
UniProt P02745, sequence (P02746 28-253 limits assumed, chain 2 of 3, further chain): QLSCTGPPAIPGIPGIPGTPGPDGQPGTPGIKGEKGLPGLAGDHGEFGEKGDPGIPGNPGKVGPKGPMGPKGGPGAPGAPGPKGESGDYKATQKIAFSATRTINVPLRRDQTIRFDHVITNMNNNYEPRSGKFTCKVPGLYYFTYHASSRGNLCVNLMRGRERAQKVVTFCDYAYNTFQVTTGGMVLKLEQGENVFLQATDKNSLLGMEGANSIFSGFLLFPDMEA
UniProt P02745, sequence (P02747 29-245 limits assumed, chain 3 of 3, further chain): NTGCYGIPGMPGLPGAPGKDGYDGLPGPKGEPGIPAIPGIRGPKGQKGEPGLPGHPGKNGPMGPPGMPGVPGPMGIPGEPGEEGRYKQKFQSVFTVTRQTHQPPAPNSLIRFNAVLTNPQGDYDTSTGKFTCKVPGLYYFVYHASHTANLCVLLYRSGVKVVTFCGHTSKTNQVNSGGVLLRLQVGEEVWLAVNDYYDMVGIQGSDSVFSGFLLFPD

For the substance IgG1-Campath-E345K (antibody), in experiment [1], the CDC on Wien 133 cells, 20% NHS: area under the dose response curve relative to IgG1-Campath is 2.4 fold and the CDC on Wien 133 cells, 20% NHS: area under the dose response curve, IgG1-Campath = 100% was 240%.

Substance IgG1-005-AA-E430G (antibody) displayed a CDC on Daudi cells, 20% NHS: EC50 in experiment [2] of 0.06 µg/mL.

In [2], IgG1-005-E345R (antibody) yielded a CDC on Daudi cells, 20% NHS: EC50 of 0.01 µg/mL.

As to IgG1-005-D270R/E430G (antibody), the CDC on Daudi cells, 20% NHS: EC50 in experiment [1] is 0.15 µg/mL.

“IgG1-Campath variant E345R with the K322E mutation (antibody)” registered a CDC on Wien 133 cells, 20% NHS: area under the dose response curve, IgG1-Campath = 100% in experiment [1] of 60%.

Take IgG1-005-AA-E345R (antibody): in [2], the CDC on Daudi cells, 20% NHS: EC50 was 0.14 µg/mL and the CDC on Daudi cells, 20% NHS: maximal kill worked out at 74.3%.

IgG1-Campath (antibody): the antibody binding capacity (Molecules/cell) (molecules/cell) in experiment [3] worked out at 93700; in experiment [4] it was 179000; in [5], 85500; in experiment [6], 1.46e+06; in experiment [7] it was 7280; in [8], 135000. The antibody binding capacity (Molecules/cell) (molecules/cell) in [9] was found to be 332000.

Regarding IgG1-005-E430G (antibody), the results for the CDC on Daudi cells, 20% NHS: EC50 in experiment [2] and in [1] were 0.01 µg/mL and 0.005 µg/mL, respectively.
